To fix the notation:
T1: Ies1 subunit of the INO80 complex (S. cerevisiae (endogenous, S288c …, UniProt P43579 1-692))
T1 construct: Ies1, N-module subunit of INO80, budding yeast; endogenous protein; Stood in the cross-linking assay as part of the whole purified complex; source: endogenously expressed in S. cerevisiae (S288c background; wild-type strain and yPB5), purified within the INO80 or INO80-AA complex (anti-FLAG M2 resin, Mono Q)
T1 sequence (looked up): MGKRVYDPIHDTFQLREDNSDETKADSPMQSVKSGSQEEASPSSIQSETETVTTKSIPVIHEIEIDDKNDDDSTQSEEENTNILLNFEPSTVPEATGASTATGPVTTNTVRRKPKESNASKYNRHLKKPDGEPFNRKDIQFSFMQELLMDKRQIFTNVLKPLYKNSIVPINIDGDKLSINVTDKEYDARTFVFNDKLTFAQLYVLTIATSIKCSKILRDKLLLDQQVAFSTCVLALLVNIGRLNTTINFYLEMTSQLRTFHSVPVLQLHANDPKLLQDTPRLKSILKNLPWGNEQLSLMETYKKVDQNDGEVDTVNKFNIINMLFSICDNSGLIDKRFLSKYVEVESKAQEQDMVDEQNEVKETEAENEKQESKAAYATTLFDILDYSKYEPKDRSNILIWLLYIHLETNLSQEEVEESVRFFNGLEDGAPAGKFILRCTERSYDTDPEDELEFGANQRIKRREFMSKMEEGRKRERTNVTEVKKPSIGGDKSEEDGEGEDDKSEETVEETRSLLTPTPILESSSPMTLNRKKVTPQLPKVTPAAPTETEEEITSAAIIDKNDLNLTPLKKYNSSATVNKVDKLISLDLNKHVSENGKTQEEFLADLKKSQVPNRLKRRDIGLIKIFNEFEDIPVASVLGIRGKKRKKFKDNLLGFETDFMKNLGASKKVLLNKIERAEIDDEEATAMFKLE

B1: N-module of the INO80 complex (Nhp10/Ies1/Ies3/Ies5) (complex)
chain 1: MSVEEKKRRLEELKDQNVVLGLAIQRSRLSVKRLKLEYGVLLERLESRIELDPELNCEDPLPTLASFKQELLTKPFRKSKTKRHKVKERDPNMPKRPTNAYLLYCEMNKERIRQNGSLDVTRDLAEGWKNLNEQDRKPYYKLYSEDRERYQMEMEIYNKKISNIDADDDKEENEQKIKNNEEGSSTKVADSKGGEDGSLVSSN
chain 2: T1 sequence (looked up)
chain 3: MKFEDLLATNKQVQFAHAATQHYKSVKTPDFLEKDPHHKKFHNADGLNQQGSSTPSTATDANAASTASTHTNTTTFKRHIVAVDDISKMNYEMIKNSPGNVITNANQDEIDISTLKTRLYKDNLYAMNDNFLQAVNDQIVTLNAAEQDQETEDPDLSDDEKIDILTKIQENLLEEYQKLSQKERKWFILKELLLDANVELDLFSNRGRKASHPIAFGAVAIPTNVNANSLAFNRTKRRKINKNGLLENIL
chain 4: MPSKDPESVIDKEIRKISARNDELIKQDGTLKREYTTLLRKVSSVITVLNSIDDADTGSAETELPRLISQATVEKVPELKWYNDQISLITEKLEDDEDIEVPEELMDAYTLYKETPLLYNDTHTP
notes: Nhp10, N-module subunit of INO80, budding yeast; endogenous protein; Ies1, N-module subunit of INO80, budding yeast; Ies3, N-module subunit of INO80, budding yeast; Ies5, N-module subunit of INO80, budding yeast; Stood in the cross-linking assay as part of the whole purified complex; also called NHP10 module; N-module subunits; source: endogenously expressed in S. cerevisiae (S288c background; …)
B2: the rest of the N-module of the INO80 complex (Nhp10/Ies3/Ies5) (complex)
chain 1: B1 chain 1
chain 2: B1 chain 3
chain 3: B1 chain 4
notes: Nhp10, N-module subunit of INO80, budding yeast; endogenous protein; Ies3, N-module subunit of INO80, budding yeast; Ies5, N-module subunit of INO80, budding yeast; source: endogenously expressed in S. cerevisiae (S288c background; wild-type strain and yPB5), purified within the INO80 or INO80-AA complex (anti-FLAG M2 resin, Mono Q); copies: + +
B3: Ino80 subunit of the INO80 complex (natural protein, UniProt P53115 1-1489, looked up)
chain: MSLAVLLNKEDKDISDFSKTTAGKSAKKNSRERVADVAPTRVLDKKQAYLSQLNSEFNRIKRRDSIEQLYQDWKFINLQEFELISEWNQQSKDWQFDNTNDSQDLHFKKLYRDMSMINKEWAEYQSFKNANLSDIINEKDADEDEEDDEDELEDGEEDMEEDEASTGRHTNGKSMRGNGIQKSRKKDAAAAAAIGKAIKDDQTHADTVVTVNGDENEDGNNGEDEDNDNDNENNNDNDNDNENENDNDSDNDDEEENGEEDEEEEEIEDLDEEDFAAFEEQDDNDDEDFNPDVEKRRKRSSSSSSSTKLSMNSLSLITSKKINKNITINSDRPKIVRELIKMCNKNKHQKIKKRRFTNCIVTDYNPIDSKLNIKITLKQYHVKRLKKLINDAKREREREEALKNNVGLDGNDLDNDEDGSESHKRRKLNNNTANGADDANKRKFNTRHGLPTYGMKMNAKEARAIQRHYDNTYTTIWKDMARKDSTKMSRLVQQIQSIRSTNFRKTSSLCAREAKKWQSKNFKQIKDFQTRARRGIREMSNFWKKNEREERDLKKKIEKEAMEQAKKEEEEKESKRQAKKLNFLLTQTELYSHFIGRKIKTNELEGNNVSSNDSESQKNIDISALAPNKNDFHAIDFDNENDEQLRLRAAENASNALAETRAKAKQFDDHANAHEEEEEEDELNFQNPTSLGEITIEQPKILACTLKEYQLKGLNWLANLYDQGINGILADEMGLGKTVQSISVLAHLAENHNIWGPFLVVTPASTLHNWVNEISKFLPQFKILPYWGNANDRKVLRKFWDRKNLRYNKNAPFHVMVTSYQMVVTDANYLQKMKWQYMILDEAQAIKSSQSSRWKNLLSFHCRNRLLLTGTPIQNSMQELWALLHFIMPSLFDSHDEFNEWFSKDIESHAEANTKLNQQQLRRLHMILKPFMLRRVKKNVQSELGDKIEIDVLCDLTQRQAKLYQVLKSQISTNYDAIENAATNDSTSNSASNSGSDQNLINAVMQFRKVCNHPDLFERADVDSPFSFTTFGKTTSMLTASVANNNSSVISNSNMNLSSMSSNNISNGKFTDLIYSSRNPIKYSLPRLIYEDLILPNYNNDVDIANKLKNVKFNIFNPSTNYELCLFLSKLTGEPSLNEFFRVSTTPLLKRVIERTNGPKNTDSLSFKTITQELLEVTRNAPSEGVMASLLNVEKHAYEREYLNCIQRGYHPNVSAPPVTIEVLGSSHVTNSINNELFDPLISQALSDIPAITQYNMHVKKGIPVEDFPKTGLFPEPLNKNFSSNISMPSMDRFITESAKLRKLDELLVKLKSEGHRVLIYFQMTKMMDLMEEYLTYRQYNHIRLDGSSKLEDRRDLVHDWQTNPEIFVFLLSTRAGGLGINLTAADTVIFYDSDWNPTIDSQAMDRAHRLGQTRQVTVYRLLVRGTIEERMRDRAKQKEQVQQVVMEGKTQEKNIKTIEVGENDSEVTREGSKSISQDGIKEAASALA
notes: Ino80, motor ATPase and scaffold subunit of the INO80 complex, budding yeast; endogenous protein with chromosomally inserted tag; Stood in the cross-linking assay as part of the whole purified complex; also called Ino80 scaffold; motor ATPase Ino80; source: endogenously expressed in S. cerevisiae (S288c background; wild-type strain and yPB5), purified within the INO80 or INO80-AA complex …

Common to all, as to assay: cross-linking; DSBU cross-linking with mass spectrometry of the purified wild-type INO80 complex; 58 uM DSBU, 20 min, 30 C, 1200 rpm; 25 mM HEPES-NaOH pH 7.2, 300 mM NaCl, 5% glycerol, 1 mM DTT, 4 mM MgCl2; repeated with an independent batch
What all share (settings): both partners purified

Assay [1] has as its target B3.
Assay [2] deals with T1, Ies1 subunit of the INO80 complex.
Assay [3] concerns the target T2, A-module of the INO80 complex (Arp4/Arp8/Act1(actin)/Taf14/Ies4) (S. cerevisiae (endogenous, S288c …, UniProt P80428 1-489; Q12386 1-881; P60010 1-375; P35189 1-244; Q08561 1-116).
T2 construct: Arp4, A-module subunit of INO80, budding yeast; endogenous protein; Arp8, A-module subunit of INO80, budding yeast; endogenous wild-type protein; Act1 (actin), A-module subunit of INO80, budding yeast; Taf14, A-module subunit of INO80, budding yeast; Ies4, A-module subunit of INO80, budding yeast; Stood in the cross-linking assay as part of the whole purified wild-type complex; also called ARP8 …

For B1, in assay [1], the binding result is “binds”. Consider B2, for which the binding result in assay [2] was “binds”. As for B3, in assay [3], the binding result was “binds”.

The values above are taken from article PMC13035910, “Dbf4-dependent kinase finetunes Ino80 function at chromosome replication origins” (Nature Communications, 2026).
